Earlier results, collected in paper PMC9252436.

Target: CD47 (Homo sapiens) (UniProt Q08722)
Sequence of UniProt Q08722 (Q08722 19-323): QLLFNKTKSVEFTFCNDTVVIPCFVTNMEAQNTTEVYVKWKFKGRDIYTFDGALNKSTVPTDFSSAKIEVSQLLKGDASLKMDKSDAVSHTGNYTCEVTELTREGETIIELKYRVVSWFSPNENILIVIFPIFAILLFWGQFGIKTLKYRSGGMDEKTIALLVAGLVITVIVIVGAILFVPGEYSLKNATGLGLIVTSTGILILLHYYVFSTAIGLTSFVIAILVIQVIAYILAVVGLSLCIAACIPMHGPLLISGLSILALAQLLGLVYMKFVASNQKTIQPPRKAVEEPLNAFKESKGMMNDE

SIRPα (from UniProt P78324)
Kd: 16 nM
